Experimental data reported in patent publication US20210032351A1 (XDCEXPLORER SHANGHAI, published 2021).

What was measured:
[1] = target: T1, wild-type human EGFR protein on the surface of cells (A431, HEB, U87MG) (human, UniProt P00533 25-1210); test: FACS on A431 cells
T1 construct: whole, on cells; One molecule for all three cell lines; the cell line is named under assay; also called wild-type EGFR
Procedure: (§1) The collected cells are suspended to 2×10⁶ cells/mL with an FACS buffer (HBSS+1% BSA, with the percentage being the mass percentage), added to a 96-well FACS reaction plate at 100 μL/well, then added with 100 μL/well of the purified EGFRvIII antibody (samples to be tested) obtained in example 2, and incubated on ice for 2 hours. The plate is centrifugally washed twice with the FACS buffer, added with 100 μL/well of a fluorescence (Alexa 488) labeled secondary antibody (purchased from Invitrogen), and then incubated on ice for 1 hour. The plate is centrifugally washed 3 times with the FACS buffer, added with 100 μL/well of a fixing solution [4% (v/v) paraformaldehyde] for suspending the cells, and centrifugally washed twice with the FACS buffer after 10 minutes. The cells are suspended in 100 μL of the FACS buffer, and the results are detected and analyzed by FACS (FACS Calibur, purchased from BD). Data analysis is performed by using the software (CellQuest) to obtain the mean fluorescence intensity (MFI) of the cells. Data is further analyzed by using the software (GraphPad Prism5) to perform data fitting and calculate EC50. […] A431 cells (human epidermal cell cancer cell lines) have a large amount of wild-type EGFR protein expressed on the surface thereof. […] U87MG cells (human glioma cell lines) have a small amount of wild-type EGFR protein expressed on the surface thereof, while HEB cells (human glioma cell lines) have a high level of wild-type EGFR protein expression on the surface thereof.

[2] = target: T2, human EGFRvIII protein on the surface of U87MG-hEGFRvIII cells (human, UniProt P00533 25-1210); test: FACS on U87MG-hEGFRvIII cells
T2 construct: whole, on cells; Stably transfected U87MG cells; also called mutant EGFRvIII protein; U87MG-EGFRvIII
Procedure: as §1, with “The cells are washed twice with the HBSS buffer and are counted, and then the cells are diluted with the HBSS buffer to 2×10⁶ cells/ml, added with 1% goat serum blocking solution, with the percentage being the mass percentage, and incubated on ice for 30 minutes, and then centrifugally washed twice with the HBSS buffer. The collected” for “The collected”

[3] = target: T3, EGFR-his (purchased from Sino Biological) (UniProt P00533 25-645); test: BLI (OctetRED), antibody on anti-human Fc (AHC) biosensor, EGFR-his in solution
T3 construct: Bought protein; also called EGFR protein; not shown: his tag
Description: (§2) BLI technology involves: detecting the interaction of the molecules fixed on the sensor with the molecules in the solution, which results in that the biofilm thickness is increased, and the interference spectrum curve is shifted along the direction of increased wavelength, wherein the phase shift of light waves can be detected by workstation in real time, and analyzed to quantitatively obtain the changes in the number of molecules on the sensor surface and related concentration and kinetic data.

[4] = target: T4, EGFRvIII-his (purchased from Sino Biological) (UniProt P00533 25-645); test: BLI (OctetRED), antibody on anti-human Fc (AHC) biosensor, EGFRvIII-his in solution
T4 construct: Bought protein; also called EGFRvIII protein; not shown: his tag
Description: as §2

binding result [1]	EC50 [2]	Kd [3]	koff [3]	kon [3]	Kd [4]	koff [4]	kon [4]	Binder
no binding	0.0133 µM							Murine anti-46C4 (antibody, V domains shown, Mouse hybridoma antibody; also called 46C4A6) VH: EVHLQQSVAELVRPGASVKLSCTASGFNIKNTYMHWVKQRPEQGLEWIGRIDPANGNTKYAPKFQGKATITADTSSNTAYLQLSSLTSEDTAIYYCASDFDYWGQGTTLTVSS VL: DVLMTQTPLSLPVSLGDQVSISCRSSQSIVNSNGNTHLEWYLQKPGQSPKVLIYKVSKRFSGVPDRFSGSGSGTDFTLKISRVEAEDLGVYYCFQGSHVPYTFGGGTKLEIK
no binding	0.0068 µM							Murine anti-53D8 (antibody, V domains shown, Mouse hybridoma antibody; also called 53D8H4) VH: QVQLQQSGAELARPGASVKMSCKASGYTFTSYTMHWVKQRPGQGLEWIGYINPSSGYTKYNQIFKDKATLTADKSSSTAYMQLSSLTSEDSAVYYCTRGGGRGFAYWGQGTLVTVSA VL: DILMTQSPSSMSVSLGDTVSITCHASQDINSNIGWLQQKPGKSFKGLIYHGTNLEDGVPSRFSGSGSGADYSLTISSLESEDFADYYCVQYAQFPFTFGSGTKLEIK
no binding	0.0253 µM							Murine anti-64B11 (antibody, V domains shown, Mouse hybridoma antibody; also called 64B11F2) VH: EVQLQQSGAELVKPGASVKLSCTASGFNIKDYYMHWVKQRTEQGLEWIGRIDPEDGETKYAPKFQGKATITADTSSNTAYLQLSNLPSEDTAVYYCGCRTGGFAYWGQGTLVTVSA VL: DILMTQSPSSMSVSLGDTVSITCHASQGINSNIGWLQQKPGKSFKALIYHGTNLEDGVPSRFSGSGSGADYSLTISSLESEDFADYYCVQYAQFPFTFGSGTELEIK
no binding	0.0123 µM							Murine anti-56F10 (antibody, V domains shown, Mouse hybridoma antibody; also called 56F10G2) VH: EVQLQQSGAELVKPGASVKLSCTASGFNIKDFYMHWVKQRTEQGLEWIGRIDPEDGETKYAPKFQGKATITADTSSNTAYLQLSSLTSEDTAVYYCGCRTGGFAYWGQGTLVTVSA VL: QIVLTQSPAIMSASPGEKVTMTCSASSSVSYLYWYQQKPGSSPSLLIYDTSNLASGVPVRFSGSGSGTSYSLTISRMEAEDAATYYCQQWSRNPWTFGGGTKLEIK
no binding	0.0409 µM							Murine anti-59G3 (antibody, V domains shown, Mouse hybridoma antibody; also called 59G3F12) VH: DVQLQESGPGLVKPSQSLSLTCSVTGYSITSGYYWHWIRQFPENKLEWMGYISYDGSNIYNPSLKNRISITRDTSKNQFFLKLNSVTTEDTATYYCAINSDYALDYWGQGTSVTVSS VL: QIVLTQSPAIMSASPGEKVTMTCSASSSVSYMYWYQQKPGSSPRLLIYDTSNLASGVPVRFSGSGSGTSYSLTISRMEAEDAATYYCQQWSSYSLTFGAGTKLELK
		0.22 µM	0.00362 s⁻¹	16500 M⁻¹ s⁻¹	0.00145 µM	0.000132 s⁻¹	91400 M⁻¹ s⁻¹	Chimeric antibody c75G7C6 (antibody, human IgG1, V domains shown, also called chimeric antibody 75G7) VH: EVQLQQSGPELVKPGASVKIPCKASGYTFTDYNMDWVKQSHGKSLEWIGDINPNNGDTIYNQKFKGKATLTVDKSSSTAYMELRSLTSEDTAVYYCARGDYDGYYPVYYAMDYWGQGTSVTVSS VL: ENVLTQSPAIMSASPGEKVTMTCRASSSVSSSYLHWYQQKSGASPKLWIFSTSNLAAGVPARFSGSGSGTSYSLTVSSVEAEDAATYYCQQYSGYPLTFGAGTKLELK
		0.215 µM	0.00435 s⁻¹	20200 M⁻¹ s⁻¹	0.00177 µM	0.000175 s⁻¹	98900 M⁻¹ s⁻¹	Humanized antibody h75G7C6-9 (antibody, human IgG1, V domains shown, Human IgG1 constant region, human kappa constant region) VH: QVQLVQSGAEVKKPGASVKVSCKASGYTFTDYNMDWVRQAPGQGLEWIGDINPNNADTIYNQKFKGRVTLTVDTSTSTVYMELSSLRSEDTAVYYCARGDYDGYYPVYYAMDYWGQGTTVTVSS VL: EIVLTQSPATLSLSPGERATLSCRASSSVSSSYLHWYQQKPGQAPRLLIYSTSNLAAGIPARFSGSGSGTDFTLTISSLEPEDFAVYYCQQYSGYPLTFGGGTKVEIK
		0.211 µM	0.00476 s⁻¹	22500 M⁻¹ s⁻¹	0.00145 µM	0.000181 s⁻¹	125000 M⁻¹ s⁻¹	Humanized antibody h75G7C6-13 (antibody, human IgG1, V domains shown, Human IgG1 constant region, human kappa constant region) VH: QVQLVQSGAEVKKPGASVKVSCKASGYTFTDYNMDWVKQAPGQGLEWIGDINPNNADTIYNQKFKGRVTLTVDKSTSTVYMELSSLRSEDTAVYYCARGDYDGYYPVYYAMDYWGQGTTVTVSS VL: EIVLTQSPATLSLSPGERATLSCRASSSVSSSYLHWYQQKPGQAPRLLIYSTSNLAAGIPARFSGSGSGTDFTLTISSLEPEDFAVYYCQQYSGYPLTFGGGTKVEIK
no binding	0.0079 µM							Murine anti-49G12 (antibody, V domains shown, Mouse hybridoma antibody; also called 49G12G5) VH: EVQLLQSGAELVKPGASVKLSCTASGFNIKDYYMHWVKQRTEQGLEWIGRIDPEDGETKYAPKFQGKATMTADTSSNTAYLQLSSLTSEDTAVYYCASSAYYGRNYWGQGTTLTVSS VL: QIVLTQSPAIMSASPGEKVTLTCSASSSLSSSYLYWYQQKPGSSPKLWIYSTSNLASGVPARFSGSGSGTSYSLTISSMEAEDAASYFCHQWSSYPYTFGGGTKLEIK
no binding	0.0262 µM							Murine anti-51G7 (antibody, V domains shown, Mouse hybridoma antibody; also called 51G7C2) VH: EVQLQQSGAELVKPGASVKLSCTASGFNIKDFYIHWVKQRTEQGLEWIGRIDPEDGETKYAPKFQDKATIIADTSSNTAYLQLSSLTSEDTAVYYCASSSYYGNNYWGQGTTLTVSS VL: QIVLTQSPAIMSASPGEKVTLTCSASSSVSSNYLYWYQQKPGSSPKLWIYSTSNLASGVPARFSGSGSGTSYSLTISSMEAEDAASYFCHQWSSFPYTFGGGTKLEIK
